Publication PMC9482650, “Quantitative fragmentomics allow affinity mapping of interactomes” (Nature Communications, 2022)
Substitutions are numbered along the chain they refer to.

Legend:
Experiment in all cases: holdup assay
Design in all cases: key: below the threshold = too weak to quantify, mostly under pKd 3.1 to 4
[1] = target: DLG2_2, Q15700
[2] = target: GRIP2_3, Q9C0E4
[3] = target: GORASP1, Q9BQQ3
[4] = target: FRMPD3, Q5JV73
[5] = target: LNX1_3, Q8TBB1
[6] = target: MAGI2_3, Q86UL8
[7] = target: T1, APBA1_2, Q02410
T1 sequence (Q02410 742-832, limits assumed, looked up): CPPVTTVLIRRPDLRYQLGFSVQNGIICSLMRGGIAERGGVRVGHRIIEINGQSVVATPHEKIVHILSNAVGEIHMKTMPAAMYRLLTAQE

[8] = target: MAGI3_2, Q5TCQ9
Chain of MAGI3_2, Q5TCQ9 (Q5TCQ9 398-503): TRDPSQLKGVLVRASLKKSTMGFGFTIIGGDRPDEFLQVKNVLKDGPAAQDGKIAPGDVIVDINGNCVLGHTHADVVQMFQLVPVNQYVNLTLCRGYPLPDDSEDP

[9] = target: GOPC, Q9HD26
[10] = target: FRMPD2_2, Q68DX3
Chain of FRMPD2_2, Q68DX3 (Q68DX3 944-1038): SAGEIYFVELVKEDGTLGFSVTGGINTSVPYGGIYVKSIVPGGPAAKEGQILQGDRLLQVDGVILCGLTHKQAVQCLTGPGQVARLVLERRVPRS

[11] = target: PARD3_3, Q8TEW0
Chain of PARD3_3, Q8TEW0 (Q8TEW0 582-685): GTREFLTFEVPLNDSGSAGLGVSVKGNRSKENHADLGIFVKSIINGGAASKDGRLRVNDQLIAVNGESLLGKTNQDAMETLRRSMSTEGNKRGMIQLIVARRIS

[12] = target: T2, RHPN1, Q8TCX5
T2 sequence (Q8TCX5 508-602, limits assumed, looked up): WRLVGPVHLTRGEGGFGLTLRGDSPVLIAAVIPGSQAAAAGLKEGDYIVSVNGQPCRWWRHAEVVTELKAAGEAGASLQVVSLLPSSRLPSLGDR

[13] = target: MAGI1_2, Q96QZ7
Chain of MAGI1_2, Q96QZ7 (Q96QZ7 456-580): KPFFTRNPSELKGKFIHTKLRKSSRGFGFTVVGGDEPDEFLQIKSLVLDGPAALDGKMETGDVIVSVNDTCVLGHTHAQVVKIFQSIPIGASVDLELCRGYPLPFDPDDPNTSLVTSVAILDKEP

[14] = target: Inadl_4, Q8NI35
Chain of Inadl_4, Q8NI35 (Q8NI35 547-651): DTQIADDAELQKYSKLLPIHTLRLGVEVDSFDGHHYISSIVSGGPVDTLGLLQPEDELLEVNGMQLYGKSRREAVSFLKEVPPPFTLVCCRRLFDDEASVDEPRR

[15] = target: T3, LIN7B, Q9HAP6
T3 sequence (Q9HAP6 88-185, limits assumed, looked up): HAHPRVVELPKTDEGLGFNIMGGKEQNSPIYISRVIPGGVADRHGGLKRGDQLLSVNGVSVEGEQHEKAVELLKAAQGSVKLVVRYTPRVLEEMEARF

[16] = target: T4, HTRA3, P83110
T4 sequence (P83110 354-453, limits assumed, looked up): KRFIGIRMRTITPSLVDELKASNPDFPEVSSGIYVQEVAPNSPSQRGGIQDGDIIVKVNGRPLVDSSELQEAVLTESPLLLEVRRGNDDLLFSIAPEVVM

[17] = target: T5, NHERF3_3, Q5T2W1
T5 sequence (Q5T2W1 238-333, limits assumed, looked up): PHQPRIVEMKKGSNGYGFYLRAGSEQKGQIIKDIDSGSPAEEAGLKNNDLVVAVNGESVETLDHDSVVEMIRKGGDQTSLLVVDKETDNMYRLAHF

[18] = target: Inadl_1, Q8NI35
Chain of Inadl_1, Q8NI35 (Q8NI35 113-229): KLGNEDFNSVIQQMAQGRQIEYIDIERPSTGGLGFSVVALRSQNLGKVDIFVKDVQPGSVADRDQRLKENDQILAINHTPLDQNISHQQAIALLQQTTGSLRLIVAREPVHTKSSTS

[19] = target: Inadl_6, Q8NI35
Chain of Inadl_6, Q8NI35 (Q8NI35 1058-1167): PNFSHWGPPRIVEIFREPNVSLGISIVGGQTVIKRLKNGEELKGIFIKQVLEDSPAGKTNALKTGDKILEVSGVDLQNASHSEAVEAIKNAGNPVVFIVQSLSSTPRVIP

[20] = target: Inadl_8, Q8NI35
Chain of Inadl_8, Q8NI35 (Q8NI35 1425-1530): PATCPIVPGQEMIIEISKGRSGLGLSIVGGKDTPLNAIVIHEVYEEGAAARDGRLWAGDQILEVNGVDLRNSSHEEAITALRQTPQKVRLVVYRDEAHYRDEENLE

[21] = target: T6, LIN7C, Q9NUP9
T6 sequence (Q9NUP9 88-185, limits assumed, looked up): T3 sequence (Q9HAP6 88-185, limits assumed, looked up) with A2S, D13E, V35I, V40I, Q65H, S79K, R89K, A96S

[22] = target: FRMPD2_1, Q68DX3
Chain of FRMPD2_1, Q68DX3 (Q68DX3 770-861): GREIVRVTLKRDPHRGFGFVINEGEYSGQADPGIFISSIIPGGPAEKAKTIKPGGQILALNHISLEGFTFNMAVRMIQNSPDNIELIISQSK

[23] = target: T7, DLG3_3, Q92796
T7 sequence (Q92796 374-475, limits assumed, looked up): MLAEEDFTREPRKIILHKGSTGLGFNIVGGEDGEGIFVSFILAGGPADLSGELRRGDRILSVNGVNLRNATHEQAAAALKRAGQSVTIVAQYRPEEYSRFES

[24] = target: DLG1_1, Q12959
[25] = target: MAST2, Q6P0Q8
Chain of MAST2, Q6P0Q8 (Q6P0Q8 1099-1202): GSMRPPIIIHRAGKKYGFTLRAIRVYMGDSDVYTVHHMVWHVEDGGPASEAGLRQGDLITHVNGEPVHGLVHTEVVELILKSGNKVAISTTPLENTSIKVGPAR

[26] = target: T8, SNTA1, Q13424
T8 sequence (Q13424 82-180, limits assumed, looked up): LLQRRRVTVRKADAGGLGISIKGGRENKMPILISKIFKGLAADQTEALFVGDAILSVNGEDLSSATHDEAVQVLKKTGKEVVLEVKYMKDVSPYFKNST

[27] = target: LNX1_2, Q8TBB1
Chain of LNX1_2, Q8TBB1 (Q8TBB1 371-470): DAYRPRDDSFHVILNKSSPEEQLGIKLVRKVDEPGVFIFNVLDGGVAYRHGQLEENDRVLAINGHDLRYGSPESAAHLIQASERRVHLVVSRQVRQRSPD

[28] = target: Inadl_10, Q8NI35
Chain of Inadl_10, Q8NI35 (Q8NI35 1673-1763): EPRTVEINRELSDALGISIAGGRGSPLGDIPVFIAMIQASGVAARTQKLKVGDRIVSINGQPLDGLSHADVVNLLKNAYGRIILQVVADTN

[29] = target: DLG4_3, P78352
Chain of DLG4_3, P78352 (P78352 306-403): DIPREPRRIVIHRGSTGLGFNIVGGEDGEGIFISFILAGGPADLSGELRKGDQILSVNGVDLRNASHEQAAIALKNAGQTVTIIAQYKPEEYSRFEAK

[30] = target: NHERF4_4, Q86UT5
Chain of NHERF4_4, Q86UT5 (Q86UT5 464-550): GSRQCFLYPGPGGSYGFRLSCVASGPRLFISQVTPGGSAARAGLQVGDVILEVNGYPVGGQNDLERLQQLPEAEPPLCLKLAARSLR

[31] = target: ARHGEF12, Q9NZN5-2
Chain of ARHGEF12, Q9NZN5-2 (Q9NZN5 other isoform, or with tags, fused parts or gaps): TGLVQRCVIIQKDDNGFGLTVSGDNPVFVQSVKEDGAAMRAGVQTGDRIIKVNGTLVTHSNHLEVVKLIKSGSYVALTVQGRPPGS

[32] = plain residues with an end cap or a label only (N-terminal biotin on a linker: ado-ado)
[33] = modified: phospho on T at position -2 from the C-terminal residue

Measured: pKd

Chain of LNX1_3, Q8TBB1 (Q8TBB1 500-596): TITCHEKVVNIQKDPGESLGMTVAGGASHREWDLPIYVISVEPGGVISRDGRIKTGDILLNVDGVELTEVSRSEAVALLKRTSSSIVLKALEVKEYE
Chain of MAGI2_3, Q86UL8 (Q86UL8 600-682): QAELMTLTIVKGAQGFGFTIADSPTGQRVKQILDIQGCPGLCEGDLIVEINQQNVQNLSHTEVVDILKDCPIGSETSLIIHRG
Chain of DLG2_2, Q15700 (Q15700 189-283): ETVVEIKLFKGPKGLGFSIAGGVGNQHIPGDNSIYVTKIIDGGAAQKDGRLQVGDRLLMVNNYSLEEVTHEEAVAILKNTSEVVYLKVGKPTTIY
Chain of FRMPD3, Q5JV73 (Q5JV73 12-100): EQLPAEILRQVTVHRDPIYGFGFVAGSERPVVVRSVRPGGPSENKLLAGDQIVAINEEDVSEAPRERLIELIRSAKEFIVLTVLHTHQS
Chain of GORASP1, Q9BQQ3 (Q9BQQ3 1-208): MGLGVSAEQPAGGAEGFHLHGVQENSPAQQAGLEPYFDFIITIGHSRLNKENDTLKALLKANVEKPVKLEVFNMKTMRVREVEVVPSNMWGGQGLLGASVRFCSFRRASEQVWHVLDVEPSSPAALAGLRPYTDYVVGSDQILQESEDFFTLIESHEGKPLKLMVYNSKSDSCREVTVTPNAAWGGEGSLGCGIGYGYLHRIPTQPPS
Chain of GRIP2_3, Q9C0E4 (Q9C0E4 238-339): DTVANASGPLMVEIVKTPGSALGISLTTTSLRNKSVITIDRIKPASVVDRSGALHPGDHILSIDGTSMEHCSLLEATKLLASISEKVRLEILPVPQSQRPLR

B1: ADRA1D, P25100 (peptide)
chain: DYSNLRETDI
3.56: [20]; [32]
below the threshold: [2]; [32] | [3]; [32] | [4]; [32] | [5]; [32] | [6]; [32] | [7]; [32] | [8]; [32] | [9]; [32] | [10]; [32] | [13]; [32] | [14]; [32] | [16]; [32] | [17]; [32] | [18]; [32] | [22]; [32] | [23]; [32] | [27]; [32] | [28]; [32] | [29]; [32] | [30]; [32]
3.51: [11]; [32]
4.03: [31]; [32]
4.05: [21]; [32]
5.71: [26]; [32]
5.22: [25]; [32]
3.73: [19]; [32]
4.1: [24]; [32]
4.35: [1]; [32] | [12]; [32]
3.62: [15]; [32]

B2: HPV33-E6_-2P, P06427 (peptide)
chain: SRSRRRETAL
below the threshold: [1]; [33] | [2]; [33] | [3]; [33] | [4]; [33] | [5]; [33] | [6]; [33] | [7]; [33] | [8]; [33] | [9]; [33] | [10]; [33] | [11]; [33] | [12]; [33] | [13]; [33] | [14]; [33] | [15]; [33] | [16]; [33] | [17]; [33] | [18]; [33] | [19]; [33] | [20]; [33] | [22]; [33] | [23]; [33] | [24]; [33] | [26]; [33] | [27]; [33] | [28]; [33] | [29]; [33] | [30]; [33] | [31]; [33]
3.62: [25]; [33]
4.08: [21]; [33]

B3: TMEM178A, Q8NBL3 (peptide)
chain: QLKSGRDSTV
4.4: [1]; [32]
4.13: [21]; [32]
3.49: [13]; [32]
3.66: [23]; [32]
3.74: [30]; [32]
4.06: [12]; [32]
4.11: [24]; [32]
4.08: [25]; [32]
3.7: [20]; [32]
3.63: [7]; [32]
3.57: [9]; [32]
4.12: [8]; [32]
3.51: [2]; [32]
3.84: [27]; [32]
3.5: [11]; [32]
below the threshold: [3]; [32] | [4]; [32] | [5]; [32] | [6]; [32] | [10]; [32] | [14]; [32] | [15]; [32] | [16]; [32] | [17]; [32] | [18]; [32] | [19]; [32] | [22]; [32] | [28]; [32] | [29]; [32] | [31]; [32]
3.88: [26]; [32]
